Experimental data taken from CN115232208A (SHANGHAI JUNSHI BIOSCIENCES CO LTD; JUNMENG BIOSCIENCES CO …, dated 2022).
Where a chain is given by its changes, count along the chain named.

B1: H482L472 (antibody, human IgG1, kappa, V domains shown)
VH: EVQLVESGGGLVQPGGSLRLSCAASGFTFSDAWMDWVRQAPGKGLEWVGEIRNKANNHATYQAESVKGRFTISRDDSKNSVYLQMNSLKTEDTAVYYCTRAPFDLLVRRGYYIMDYWGQGTLVTVSS
VL: DIQMTQSPSSLSASVGDRVTITCRTSQDISIYLNWYQQKPGKAPKLLIYYTSRLRSGVPSRFSGSGSGTDFTLTISSLQPEDFATYFCQQGSTLPWTFGGGTKLEIKR
notes: also called UBP1213sc (its formulation); UBP1213
B2: H484L474 (antibody, human IgG1, kappa, V domains shown)
VH: B1 VH with G49A, N79S, K89R, T90A
VL: B1 VL with L11V
B3: H483L473 (antibody, human IgG1, kappa, V domains shown)
VH: B1 VH with Q13K, N79S, S80T
VL: B1 VL with L73F, F83I

Molecular target: 人可溶性BLyS (human soluble BLyS) (human, UniProt Q9Y275 134-285)
Assay: cell-based or functional assay

| IC50 of inhibition of the NF-κB signal downstream of human BLyS binding TACI (luciferase reporter gene assay) [ng/mL] | Binder |
| --- | --- |
| 37.6 | B1 |
| 31.5 | B2 |
| 29.3 | B3 |

Molecular target: T1, 重组人BLyS蛋白 (recombinant human BLyS protein) (human, UniProt Q9Y275 134-285)
T1 construct: Recombinant human BLyS coated on hydrophobic ELISA plates; also called B淋巴细胞刺激因子; BAFF
Assay: Blocking ELISA, human BLyS coated, competition with human BR3

| IC50 [µg/mL] | Binder |
| --- | --- |
| 1.24 | B1 |
| 1.27 | B2 |
| 0.858 | B3 |
